One substance from PMC7951975 can be followed below.

The target in the experiment is GraS (native), fused to the T18 fragment of adenylate cyclase (Staphylococcus aureus) (UniProt Q2G0D9).
Sequence of UniProt Q2G0D9 (Q2G0D9 whole entry, the tested form may be a part): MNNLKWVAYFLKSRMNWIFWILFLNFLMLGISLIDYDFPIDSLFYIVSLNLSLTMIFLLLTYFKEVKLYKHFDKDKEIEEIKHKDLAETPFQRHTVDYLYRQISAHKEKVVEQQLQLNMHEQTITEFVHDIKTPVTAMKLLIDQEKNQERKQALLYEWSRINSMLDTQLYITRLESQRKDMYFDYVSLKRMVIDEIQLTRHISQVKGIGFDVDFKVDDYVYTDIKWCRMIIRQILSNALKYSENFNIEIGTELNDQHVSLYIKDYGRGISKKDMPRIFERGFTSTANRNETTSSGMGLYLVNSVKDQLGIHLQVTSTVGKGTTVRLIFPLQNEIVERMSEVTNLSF

Turning to “EL peptide of VraG (wild type) (domain or fragment)”, the survival of the ΔEL vraG mutant of JE2 in a 2-hr. killing assay with 2.5 μg/ml LL-37 in the presence of ~300 ng exogenous EL peptide was 40%.
